Data as given in article PMC8026773.

Target: human TREM2 Ig domain (aa 19-134), wild type, biotinylated on a BirA tag (human) (UniProt Q9NZC2)
Assay: BLI

Sequence of human TREM2 Ig domain (aa 19-134), wild type, biotinylated on a BirA tag (human) (Q9NZC2 19-134): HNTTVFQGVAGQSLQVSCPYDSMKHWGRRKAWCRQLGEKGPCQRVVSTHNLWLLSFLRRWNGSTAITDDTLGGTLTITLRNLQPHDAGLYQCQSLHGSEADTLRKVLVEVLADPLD

- Kd: 696 nM
Substance: ApoE3 1-238 (C-term deletion) (domain or fragment)
